Assay [1] has as its target LOX-1 (Homo sapiens, UniProt P78380). The experiment in a line: Phage TRF binding assay of adhiron-antibody fusions on LOX-1. To be noted: monoclonal phage; LOX-1 directly immobilised; non-specific binding checked on cMET-FC, GAS6-CD4, FGFR4-CD4, UPA, B-gal. The procedure: In order to test the functionality of these adhiron-antibody fusions, monoclonal phage prepared from each clone was assessed for binding to LOX-1 in a TRF binding assay. In this assay, LOX-1 (immobilised directly on Maxisorp™ plates) binding of phage displaying adhiron-antibody fusion was detected using a mouse anti-M13 antibody (GE Healthcare) followed by europium conjugated anti-mouse antibody (Perkin Elmer). Parent KnotBodies KB_A07 and KB_A12 (EETI-II fusions) were included as controls. Proteins cMET-FC, GAS6-CD4, FGFR4-CD4, UPA and B-gal were used to examine non-specific binding.

Assay [2] concerns the target human Nav1.7 (Homo sapiens, UniProt Q15858). The experiment in a line: QPatch patch-clamp on CHO cells stably expressing human Nav1.7, single application (Example 19). It counts as cell-based. To be noted: 20 minutes application; run-down of external solution control subtracted. The procedure: The effect of these KnotBodies on cells expressing human Nav1.7 (huNav1.7) channel was assessed using QPatch automated patch-clamp platform (Sophion). For the testing of Nav1.7 ion channel currents, CHO cells stably expressing human Nav1.7 (GenBank accession number NM 002977; cell line catalogue number CT6003, Charles River Discovery, Cleveland, USA) were subjected to the QPatch electrophysiology assay in the presence or absence of the KnotBody fusions or the antibody isotypes (negative controls). Internal and external physiological solutions were freshly prepared prior to the assay. The extracellular solution contained 145 mM NaCl, 4 mM KCl, 2 mM CaCl2, 1 mM MgCl2, 10 mM HEPES and 10 mM glucose; the pH was adjusted to 7.4 with NaOH; the osmolarity was ˜305 mOsm/L. The intracellular solution contained: KF (120 mM), KCl (20 mM), HEPES (10 mM) EGTA (10 mM); the pH was adjusted to 7.2 with KOH; osmolarity was ˜300 mOsm/L.
A series of depolarising voltage (channel activating) pulses were used to monitor the channel currents upon adding control (extracellular solution) to define a control baseline of current activity. To these measured control channel currents KnotBody or parental antibody isotypes (control molecules) were applied to the external bathing solution. The parental KnotBody KB_A12 (with trypsin inhibitor knottin EETI-II at CDR2) were used as test molecule isotype controls for the testing. […] The elicited, maximum outward current values measured during the −10 mV activating step for each solution period (a control, baseline level of current was determined at 10 minutes after application of the control external recording solution and a test level of current was determined after 20 minutes of application of KnotBody or its isotype) and average inhibition was determined between the current from the 10 minute baseline control current and the subsequent 20 minute KnotBody application. […] The average inhibition values (with external control reduction subtracted) for KnotBodies and isotypes was calculated.

In assay [3] the target is T1, huASIC1a (Homo sapiens, UniProt P78348).
T1 sequence (P78348 whole entry, looked up): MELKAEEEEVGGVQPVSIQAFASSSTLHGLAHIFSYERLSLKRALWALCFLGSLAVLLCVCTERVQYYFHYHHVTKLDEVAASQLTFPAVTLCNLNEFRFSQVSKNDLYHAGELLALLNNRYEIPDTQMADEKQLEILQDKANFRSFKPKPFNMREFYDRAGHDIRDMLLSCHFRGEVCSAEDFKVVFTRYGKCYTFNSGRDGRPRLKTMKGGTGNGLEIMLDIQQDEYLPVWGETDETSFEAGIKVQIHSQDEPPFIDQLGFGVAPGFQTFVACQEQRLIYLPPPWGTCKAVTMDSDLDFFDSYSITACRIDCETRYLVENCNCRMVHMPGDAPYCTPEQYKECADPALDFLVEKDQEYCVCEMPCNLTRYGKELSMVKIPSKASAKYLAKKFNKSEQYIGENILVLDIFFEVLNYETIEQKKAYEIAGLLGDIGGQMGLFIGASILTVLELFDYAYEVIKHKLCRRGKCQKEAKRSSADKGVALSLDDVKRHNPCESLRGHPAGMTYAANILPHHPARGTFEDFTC
The experiment in a line: QPatch automated whole-cell patch-clamp on HEK293 cells stably expressing huASIC1a. It counts as cell-based. To be noted: pH 6.0 activation after 15-20 min pre-incubation; concentration μM: KB_A07_PcTx1 6.6, KB_A12_PcTx1 5, KB_A12_Mba-1 3, KB_A12_Mba-2 2.3, KB_A07 6, KB_A12 3.3. The procedure:
Knottin Kv 1.3 and ASIC1a blockers expressed in the KnotBody format (see examples 6 and 7) were tested for their ability to inhibit the function of the ion channel targets. The effect of these KnotBodies on cells expressing the human Kv 1.3 (huKv1.3) or human ASIC1a channels was assessed using QPatch automated whole-cell patch-clamp electrophysiology (Sophion).
To functionally assess the ASIC1a KnotBodies, HEK293 cells stably expressing huASIC1a (Sophion) were analysed using a QPatch electrophysiology assay in the presence or absence of the KnotBody fusions (using KB_A12 as a recipient and replacing the original EETI-II donor as shown in Table 8). The “parental” KB_A12 with the EETI-II donor was used as a negative control. Internal and external physiological solutions were freshly prepared prior to the assay. […]
At the end of each KnotBody incubation and subsequent ASIC1a current activation, a full blocking concentration (300 nM) of the ASIC1a knottin inhibitor PcTx1 (positive control) was perfused onto the cell recording and a final activating pH 6.0 external solution was applied. The percentage remaining signal between activating pH 6.0 baseline (i.e. pre-KnotBody) and post-KnotBody incubation was determined.

human Nav1.7, sequence (Q15858 other isoform, or with tags, fused parts or gaps): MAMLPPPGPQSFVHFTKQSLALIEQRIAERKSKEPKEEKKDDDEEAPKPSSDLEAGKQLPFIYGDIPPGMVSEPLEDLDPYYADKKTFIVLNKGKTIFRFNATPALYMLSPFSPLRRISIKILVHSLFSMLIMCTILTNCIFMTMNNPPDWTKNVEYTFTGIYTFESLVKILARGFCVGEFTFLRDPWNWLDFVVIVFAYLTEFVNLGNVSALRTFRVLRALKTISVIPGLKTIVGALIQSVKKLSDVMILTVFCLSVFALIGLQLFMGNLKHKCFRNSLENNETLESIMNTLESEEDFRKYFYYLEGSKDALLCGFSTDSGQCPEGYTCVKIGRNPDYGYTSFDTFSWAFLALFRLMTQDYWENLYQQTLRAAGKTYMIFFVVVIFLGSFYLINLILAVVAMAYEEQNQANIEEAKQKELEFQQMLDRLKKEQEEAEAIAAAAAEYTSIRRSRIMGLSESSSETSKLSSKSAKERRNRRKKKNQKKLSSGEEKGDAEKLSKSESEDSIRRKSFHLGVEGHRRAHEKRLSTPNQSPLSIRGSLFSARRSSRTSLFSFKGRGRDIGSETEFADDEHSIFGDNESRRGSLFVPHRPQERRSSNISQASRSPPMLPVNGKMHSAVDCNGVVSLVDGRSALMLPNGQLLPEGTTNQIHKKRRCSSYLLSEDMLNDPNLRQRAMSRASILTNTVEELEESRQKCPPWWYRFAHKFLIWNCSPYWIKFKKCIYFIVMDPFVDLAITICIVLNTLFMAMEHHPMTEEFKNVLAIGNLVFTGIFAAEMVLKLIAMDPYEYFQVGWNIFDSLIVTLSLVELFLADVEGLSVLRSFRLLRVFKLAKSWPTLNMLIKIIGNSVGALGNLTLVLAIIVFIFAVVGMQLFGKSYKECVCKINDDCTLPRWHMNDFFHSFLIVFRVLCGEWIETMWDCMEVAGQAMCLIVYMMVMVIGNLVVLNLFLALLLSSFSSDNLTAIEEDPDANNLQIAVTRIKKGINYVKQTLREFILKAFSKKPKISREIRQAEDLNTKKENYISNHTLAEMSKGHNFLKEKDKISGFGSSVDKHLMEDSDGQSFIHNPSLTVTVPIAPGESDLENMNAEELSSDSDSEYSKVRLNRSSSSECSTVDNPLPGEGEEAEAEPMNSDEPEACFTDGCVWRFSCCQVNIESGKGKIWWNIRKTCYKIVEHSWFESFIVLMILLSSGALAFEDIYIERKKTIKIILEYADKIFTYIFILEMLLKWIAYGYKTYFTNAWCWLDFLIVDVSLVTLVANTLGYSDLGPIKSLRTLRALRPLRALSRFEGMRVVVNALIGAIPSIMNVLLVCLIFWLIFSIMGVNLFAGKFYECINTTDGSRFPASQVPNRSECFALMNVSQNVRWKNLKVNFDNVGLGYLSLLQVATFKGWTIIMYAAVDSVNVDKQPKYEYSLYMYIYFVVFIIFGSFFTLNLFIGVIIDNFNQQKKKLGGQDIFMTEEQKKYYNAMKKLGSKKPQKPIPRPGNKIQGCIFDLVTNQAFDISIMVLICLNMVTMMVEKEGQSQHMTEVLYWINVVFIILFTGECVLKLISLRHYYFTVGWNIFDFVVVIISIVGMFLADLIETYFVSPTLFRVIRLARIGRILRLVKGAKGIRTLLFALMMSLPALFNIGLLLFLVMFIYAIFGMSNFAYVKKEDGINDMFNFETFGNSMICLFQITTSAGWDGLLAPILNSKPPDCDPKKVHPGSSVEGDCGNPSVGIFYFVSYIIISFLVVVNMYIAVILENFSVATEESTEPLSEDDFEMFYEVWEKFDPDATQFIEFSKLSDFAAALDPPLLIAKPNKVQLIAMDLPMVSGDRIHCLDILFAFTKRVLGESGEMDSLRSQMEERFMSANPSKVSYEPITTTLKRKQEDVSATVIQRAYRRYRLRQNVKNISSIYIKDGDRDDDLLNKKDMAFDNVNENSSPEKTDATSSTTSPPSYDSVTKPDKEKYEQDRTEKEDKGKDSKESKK

B1: KB_A12: EETI-II VL CDR2 KnotBody, D1A12 VH, VL SEQ ID NO: 105/373; parental/isotype control (antibody, V domains shown)
VH: EVQLVESGGGLVRPGGSLRLSCAASGFTFSSYAMSWVRQAPGKGLEWVSAISGSGGSTYYADSVKGRFTISRDNTKNSLYLQMTSLRADDTAFYYCVKDFGPGYGTGWFDYWGPGTLVTVSS
VL: QSVLTQPPSVSEAPRQRVTITCSGSSSNIGNNAVNWYQQLPGKAPKLLIYAAGRCPRILMRCKQDSDCLAGCVCGPNGFCGANSGVSDRFSAAKSGTSASLAINGLRSEDEADYYCAAWDDSLNGYVFGTGTKLTVLG
Consider B1, for which, in assay [1], the “binding to LOX-1” value is reported as “no detectable binding to the LOX-1”. In assay [2], the “inhibition in measured Nav1.7 current” value was “small inhibition in measured current, which was not statistically significant”. In assay [3], the “% current remaining” value came out at 67.4%.

Values taken from patent publication US11932673B2, “Sodium channel inhibitors” (priority 2017, dated 2024).
